Here are results for two molecules from publication doi:10.1101/2022.07.20.500788.

Common to all, as to experiment: filter binding
For one data set, the target named is HsAGO2 (human, UniProt Q9UKV8 1-859).
The target of a further data set is HsAGO2+At-loop (human, UniProt Q9UKV8 1-601+Q9XGW1:713-720+609-859, internal_change).
The next data set deals with T1, AtAGO10+Hs-loop D795A (Arabidopsis, UniProt Q9XGW1 1-712+Q9UKV8:602-608+721-988, D795A;internal_change).
T1 sequence: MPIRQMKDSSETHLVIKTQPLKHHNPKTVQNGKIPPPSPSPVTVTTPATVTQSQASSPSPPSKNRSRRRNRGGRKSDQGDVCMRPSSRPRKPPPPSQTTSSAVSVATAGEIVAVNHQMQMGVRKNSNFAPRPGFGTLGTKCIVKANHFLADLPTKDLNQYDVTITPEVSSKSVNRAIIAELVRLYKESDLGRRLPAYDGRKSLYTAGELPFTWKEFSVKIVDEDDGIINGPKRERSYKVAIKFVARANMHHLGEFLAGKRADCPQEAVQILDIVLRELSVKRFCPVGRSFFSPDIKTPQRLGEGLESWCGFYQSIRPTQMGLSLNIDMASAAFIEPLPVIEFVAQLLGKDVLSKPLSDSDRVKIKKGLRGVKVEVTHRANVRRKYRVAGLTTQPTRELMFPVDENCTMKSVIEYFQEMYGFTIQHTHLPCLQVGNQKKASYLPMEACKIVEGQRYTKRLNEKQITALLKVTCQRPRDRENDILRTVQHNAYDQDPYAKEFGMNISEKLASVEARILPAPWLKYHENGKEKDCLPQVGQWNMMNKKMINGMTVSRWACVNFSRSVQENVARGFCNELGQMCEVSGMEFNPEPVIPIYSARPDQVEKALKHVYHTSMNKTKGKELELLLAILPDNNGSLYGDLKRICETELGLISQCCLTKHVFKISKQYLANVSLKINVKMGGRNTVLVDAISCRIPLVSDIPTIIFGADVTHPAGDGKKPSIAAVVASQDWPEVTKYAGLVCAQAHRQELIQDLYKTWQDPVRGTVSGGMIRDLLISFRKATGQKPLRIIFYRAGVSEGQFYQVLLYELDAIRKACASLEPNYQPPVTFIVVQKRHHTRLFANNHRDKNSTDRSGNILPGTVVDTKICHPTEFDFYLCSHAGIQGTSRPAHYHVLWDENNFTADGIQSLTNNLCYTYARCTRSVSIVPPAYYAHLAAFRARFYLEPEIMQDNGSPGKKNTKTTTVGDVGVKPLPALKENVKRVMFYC

For data set [1], the target named is T2, AtAGO10 D795A (wild-type PIWI loop) (Arabidopsis, UniProt Q9XGW1 1-988, D795A).
T2 sequence: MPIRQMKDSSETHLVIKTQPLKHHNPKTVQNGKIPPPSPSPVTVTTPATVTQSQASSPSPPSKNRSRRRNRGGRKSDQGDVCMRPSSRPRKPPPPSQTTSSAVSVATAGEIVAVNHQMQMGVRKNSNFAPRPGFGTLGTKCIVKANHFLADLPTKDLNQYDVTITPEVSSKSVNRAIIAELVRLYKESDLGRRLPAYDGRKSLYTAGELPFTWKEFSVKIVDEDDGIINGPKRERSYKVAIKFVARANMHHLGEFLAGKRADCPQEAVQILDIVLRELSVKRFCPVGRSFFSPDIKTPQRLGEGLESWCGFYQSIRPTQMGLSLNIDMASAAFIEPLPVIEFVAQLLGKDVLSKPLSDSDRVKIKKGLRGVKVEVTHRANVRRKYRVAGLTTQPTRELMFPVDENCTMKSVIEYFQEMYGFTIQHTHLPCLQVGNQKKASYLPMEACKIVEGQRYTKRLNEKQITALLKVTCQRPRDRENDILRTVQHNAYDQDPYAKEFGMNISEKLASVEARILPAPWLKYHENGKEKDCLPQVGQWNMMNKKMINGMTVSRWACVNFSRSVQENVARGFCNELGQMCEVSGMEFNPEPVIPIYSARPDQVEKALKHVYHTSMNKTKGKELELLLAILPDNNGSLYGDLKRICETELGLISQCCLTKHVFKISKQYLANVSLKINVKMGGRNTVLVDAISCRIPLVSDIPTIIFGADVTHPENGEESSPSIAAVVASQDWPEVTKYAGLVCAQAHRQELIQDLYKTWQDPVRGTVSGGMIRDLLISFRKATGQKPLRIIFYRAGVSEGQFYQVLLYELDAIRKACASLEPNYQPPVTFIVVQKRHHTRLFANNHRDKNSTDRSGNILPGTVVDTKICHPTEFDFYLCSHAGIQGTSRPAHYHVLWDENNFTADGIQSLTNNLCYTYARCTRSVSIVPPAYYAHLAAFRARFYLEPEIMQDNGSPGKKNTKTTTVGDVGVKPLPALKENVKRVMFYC

B1: guide RNA / 2-21 target (mixed)
RNA 1: UGGAGUGUGACAAUGGUGUUU
RNA 2: AAACACCAUUGUCACACUCCAAA
In the case of B1, the Kd (as a rule, the free concentration of one partner at which half of the binding sites on the other are occupied at equilibrium, for simple one-to-one binding) with HsAGO2 was determined as 0.01 ± 0.001 nM; with HsAGO2+At-loop, 0.005 ± 0.001 nM; with AtAGO10+Hs-loop D795A, 0.095 ± 0.012 nM; in data set [1], 0.04 ± 0.007 nM.

B2: guide RNA / 2-8 target (mixed)
RNA 1: UGGAGUGUGACAAUGGUGUUU
RNA 2: AAAAAAAAAAAAAACACUCCAAA
Turning to B2, the Kd is 0.086 ± 0.005 nM in the data set with HsAGO2, 6.43 ± 0.24 nM with HsAGO2+At-loop, 0.38 ± 0.03 nM with AtAGO10+Hs-loop D795A and 1.33 ± 0.14 nM in data set [1].
